# From the nanobody polyreactivity screen of Harvey et al. (2022)
# Assay: yeast display, Sf9 membrane polyspecificity reagent, FACS + sequencing; frameworks hold sequencing errors
# Method in brief: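 After 36–48 hours of galactose induction, yeast (Saccharomyces cerevisiae BJ5465) displaying a synthetic nanobody library were stained at 4 °C for 1 hour with 10% biotinylated, detergent-solubilized Sf9 membrane reagent. Streptavidin microbeads enriched the stained cells before FACS sorting into low and high (top ~1%) gates on anti-HA and streptavidin fluorescence. Each clone's polyreactivity label reflects its gate of origin.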
row,Sequence,polyreactivity (PSR sort gate)
1,QVQLVESGGGLVQAGGSLRLSCAASGRIFRFYAMGWYRPAPGKERELVAAISWNGGRTYYAVSVKGRFTISRDNAKNTVYLQMNSLKPEVTAVYYCATEFYYHWYSPFDYWGQGTQVTVSS,high polyreactivity
2,QVQLVESGGGLVQAGGSLRLSCAASGRIFRGNGMGWYRQAPGKERELVAAINYSGASTYYADSVKGRFTISRDNAKNTVYLQMNSLKPEDTAVYYCARAWFYRGGEGWLESYIVSGDYWGQGTQVTVSS,low polyreactivity
3,QVQLVESGGGLVQAGGSLRLSCAASGRIFRGYAMGWSRQAPGKERELVAAITSRGGSTYADSVKGRFTISRDNAKNTVYLQMNSLKPEDTAVYYCNAKEGSRYRKYDYWGQGTQVTVSS,low polyreactivity
4,QVQLVESGGGLVQAGGSLRLSCAASGRIFRGYAMGWYRPAPGKERELVAAIDTDTGITYYADSVKGRFTISRVNAKNTVNLQMNSLKPEDTAVYYCAAETYYAVSTGYYFDYWGQGTQVTVSS,high polyreactivity
5,QVQLVESGGGLVQAGGSLRLSCAASGRIFRGYAMGWYRQAPGKERELVAAISASGGSTYYADSVKGRFTISRDNAKNTVYLQMNSLKPEDTAVYYCATTIFYTYYGLYDYWGQGTQVTVSS,high polyreactivity
6,QVQLVESGGGLVQAGGSLRLSCAASGRIFRGYAMGWYRQAPGKERELVAAITSRGGSTYADSVKGRFTISRDNAKNTVYLQMNSLKPEDTAVYYCNAGYRAYSSKLVFRGYPRYDYWGQGTQVTVSS,low polyreactivity
7,QVQLVESGGGLVQAGGSLRLSCAASGRIFRGYTMGWYRQAPGKERELVAAISRSTGSTNYADSVKGRFTISRDNAKNTVYLQMNSLKPEDTAVYYCAATVSPSYDYWGQGTQVTVSS,high polyreactivity
8,QVQLVESGGGLVQAGGSLRLSCAASGRIFRINAMGWYRQAPGKEMELVASSSRRGGNTYYADSVKGRFTISRDNAKNTVYLQMNSLKPEDTAVYYCAADTNQERTFDYWGQGTQVTVSS,low polyreactivity
9,QVQLVESGGGLVQAGGSLRLSCAASGRIFRINAMGWYRQAPGKERELVASISRRGGNTYYADSVKGRFTISRDNAKNTVYLQMNSLKPEDTAVYYCAADTNLERTFDYWGQGTQVTVSS,low polyreactivity
10,QVQLVESGGGLVQAGGSLRLSCAASGRIFRINAMGWYRQAPGKERELVASISRRGGNTYYADSVKGRFTISRDNAKNTVYLQMNSLKPEDTAVYYCAADTNQERTFDYWGQGTQVTVSS,low polyreactivity
11,QVQLVESGGGLVQAGGSLRLSCAASGRIFRIYAMGWYRQAPGKERELVAAISWSGGRTYYADSVKGRFTISRDNAKNTVYLQMNSLIREDTAVYYCNADSYSRRGFEYDYWGQGTQVTVSS,high polyreactivity
12,QVQLVESGGGLVQAGGSLRLSCAASGRIFRIYAMGWYRQAPGKERELVARITYSGGSTYYADSVKGRFTISRDNAKNTVYLQMNSLKPEDTAVYYCNAYFIYEGGWYYKAQYDYWGQGTQVTVSS,low polyreactivity
13,QVQLVESGGGLVQAGGSLRLSCAASGRIFRIYTMGWYRQAPGKERELVAAITKSGGSTSYADSVKGRFTISRDNAKNTVYLQMNSLKPEDTAVYYCNAKGWSRPPGYDYWGQGTQLTVSS,high polyreactivity
14,QVQLVESGGGLVQAGGSLRLSCAASGRIFRKNAMGWYRQAPGKERELVAAITSSGNTYYADSVKGRFTISRDNAKNTVYFQMNSLKPEDTAVYYCAARLKWLNRYGYDYWGQGTQVTVSS,low polyreactivity
15,QVQLVESGGGLVQAGGSLRLSCAASGRIFRKYAMGWYRQAPGKERELVAAISGSGGSTYYADSVKGRFTISRDNAKNTVYLQMNSLKPEDTAVYYCAASAGRYSSTLGYYWGQGTQVTVSS,high polyreactivity
16,QVQLVESGGGLVQAGGSLRLSCAASGRIFRKYTKGWYRQAPGKERELVAAITGTGGSTYYADSVKGRFTISRDNAKNTVYLQMNSLKPEDTAVYYCAADYSARYGFWGLGTQVTVSS,high polyreactivity
17,QVQLVESGGGLVQAGGSLRLSCAASGRIFRKYTMGWYRQAPGKERELVAAISRNGGDTYYADSVKGRFTISRDNAKNTVYLQMHSLKPEDPAVYYCNARTPPDSTHFAYWGQGTQVTVSS,low polyreactivity
